Here are results for 57 molecules from article PMC9352680, “A comprehensive thermodynamic model for RNA binding by the Saccharomyces cerevisiae Pumilio protein PUF4”.

For orientation: Kd means a measure of binding affinity in units of concentration. The low end stands for higher affinity, the high end for lower affinity.

For the series, the target named is T1, PUF4 RNA-binding domain (Saccharomyces cerevisiae, UniProt P25339 537-888).
T1 sequence: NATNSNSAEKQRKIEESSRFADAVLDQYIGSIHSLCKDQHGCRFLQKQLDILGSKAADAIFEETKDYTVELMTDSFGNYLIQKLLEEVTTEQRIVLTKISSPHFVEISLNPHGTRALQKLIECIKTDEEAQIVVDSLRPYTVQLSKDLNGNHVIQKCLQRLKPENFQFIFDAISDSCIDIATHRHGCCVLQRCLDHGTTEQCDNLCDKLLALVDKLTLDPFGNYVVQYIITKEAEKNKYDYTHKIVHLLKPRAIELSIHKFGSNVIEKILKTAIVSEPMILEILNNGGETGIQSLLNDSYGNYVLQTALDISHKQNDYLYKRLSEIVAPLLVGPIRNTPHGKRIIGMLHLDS
The series is described as follows: Mg; RNA-MaP; 20 mM Na-HEPES pH 7.4, 30 mM KOAc, 0.75 mM MgCl2, 0.1% Tween-20, 5% glycerol, 0.1 mg/mL BSA, 2 mM DTT; 25 C; 0.0125-409.6 nM protein. Conditions: tags: N-His6-TEV cleaved; C-SNAP kept, Cy3B-labelled; label: tethered on chip by stalled RNA polymerase.
ACAAACGUACACUAUUAACACAAAC (ssRNA) [Id_ii_S3_P4E.4_K4.3_C4.2_[C-2G]_H4.3_A4.1_F4.1_T4.2_[G10A]_[T11C]] had a Kd of 39.8 nM. This counts as double-digit nanomolar. The molecule ACAAACCCUAUAUAUUAACACAAAC (ssRNA) [Id_ii_S3_P4E.3_K4.2_C4.2_[T-1C]_H4.2_A4.1_F4.1_T4.2_[G10A]_[T11C]] gave a Kd of 25.9 nM.

On to ACAAACUGACACUAUUAUGACAAAC (ssRNA) [Id_ii_S3_P4E.4_K4.3_C4.2_[C-2T]_[T-1G]_H4.3_A4.1_F4.1_T4.2_[G10T]_[T11G]], for which the Kd was more than 2300 nM. The result for ACAAACAUUAUAUAUUACGACAAAC (ssRNA) [Id_ii_S3_P4E.3_K4.2_C4.2_[C-2A]_H4.2_A4.1_F4.1_T4.2_[G10C]_[T11G]] reads 21.4 nM; that for ACAAACAGUAUAUAUUAUCACAAAC (ssRNA) [Id_ii_S3_P4E.3_K4.2_C4.2_[C-2A]_[T-1G]_H4.2_A4.1_F4.1_T4.2_[G10T]_[T11C]], 25.5 nM.

Consider ACAAACUCUAUAUAUUAUCACAAAC (ssRNA) [Id_ii_S3_P4E.3_K4.2_C4.2_[C-2T]_[T-1C]_H4.2_A4.1_F4.1_T4.2_[G10T]_[T11C]], for which the Kd came to 16.3 nM.

ACAAACCAUAUAUAUUACCACAAAC (ssRNA) [Id_ii_S3_P4E.3_K4.2_C4.2_[T-1A]_H4.2_A4.1_F4.1_T4.2_[G10C]_[T11C]] returned a dissociation constant (Kd) of 32.1 nM. The result for UCUCUUUGUAUUUUUGUCUCUU (ssRNA) [Ib_S1_P5E.1_K5.1_C5.1_H5.1_A5.1_[A7T]_F5.1_[A10G]_T5.1] reads 13.7 nM; that for ACAAACAUUAUAUAUUAGAACAAAC (ssRNA) [Id_ii_S3_P4E.3_K4.2_C4.2_[C-2A]_H4.2_A4.1_F4.1_T4.2_[T11A]], 12.8 nM; that for ACAAACGUUAUAUAUUAUCACAAAC (ssRNA) [Id_ii_S3_P4E.3_K4.2_C4.2_[C-2G]_H4.2_A4.1_F4.1_T4.2_[G10T]_[T11C]], 42.4 nM. Consider ACAAACGCACACUAUUACUACAAAC (ssRNA) [Id_ii_S3_P4E.4_K4.3_C4.2_[C-2G]_[T-1C]_H4.3_A4.1_F4.1_T4.2_[G10C]], for which the dissociation constant Kd was more than 2300 nM. With ACAAACACUAUAUAUUAACACAAAC (ssRNA) [Id_ii_S3_P4E.3_K4.2_C4.2_[C-2A]_[T-1C]_H4.2_A4.1_F4.1_T4.2_[G10A]_[T11C]] the figure was 29.6 nM; with UCUCUUUGUAUCAUUUUCUCUU (ssRNA) [Ib_S1_P5E.1_K5.1_C5.1_H5.1_A5.1_[T6C]_F5.1_[A10T]_T5.1], 7.85 nM; with ACAAACAUUAUAUAUUACAACAAAC (ssRNA) [Id_ii_S3_P4E.3_K4.2_C4.2_[C-2A]_H4.2_A4.1_F4.1_T4.2_[G10C]_[T11A]], 27.7 nM. For the molecule ACAAACACUAUAUAUUACUACAAAC (ssRNA) [Id_ii_S3_P4E.3_K4.2_C4.2_[C-2A]_[T-1C]_H4.2_A4.1_F4.1_T4.2_[G10C]], the Kd amounted to 17.6 nM. Compared with the last molecule, the Kd is about 1.6-fold lower. The result for ACAAACUCUAUAUAUUAUAACAAAC (ssRNA) [Id_ii_S3_P4E.3_K4.2_C4.2_[C-2T]_[T-1C]_H4.2_A4.1_F4.1_T4.2_[G10T]_[T11A]] reads 15.5 nM; that for ACAAACCCUAUAUAUUACUACAAAC (ssRNA) [Id_ii_S3_P4E.3_K4.2_C4.2_[T-1C]_H4.2_A4.1_F4.1_T4.2_[G10C]], 18.4 nM; that for ACAAACCUUAUAUAUUAGUACAAAC (ssRNA) [If_S3_P4E.3_K4.2_C4.2_H4.2_A4.1_F4.1_T4.2], 3.71 nM.

ACAAACCCUAUAUAUUAAUACAAAC (ssRNA) [Id_ii_S3_P4E.3_K4.2_C4.2_[T-1C]_H4.2_A4.1_F4.1_T4.2_[G10A]]: the affinity, expressed as Kd, was 14 nM. The result for ACAAACCUUAUAUAUUAACACAAAC (ssRNA) [Id_ii_S3_P4E.3_K4.2_C4.2_H4.2_A4.1_F4.1_T4.2_[G10A]_[T11C]] reads 21.6 nM.

In turn, ACAAACAAUAUAUAUUAAAACAAAC (ssRNA) [Id_ii_S3_P4E.3_K4.2_C4.2_[C-2A]_[T-1A]_H4.2_A4.1_F4.1_T4.2_[G10A]_[T11A]] gave a Kd of 108 nM. The result for UCUCUUUGUAUUCUUGUCUCUU (ssRNA) [Ib_S1_P5E.1_K5.1_C5.1_H5.1_A5.1_[A7C]_F5.1_[A10G]_T5.1] reads 20.4 nM; that for ACAAACAGUAUAUAUUAGGACAAAC (ssRNA) [Id_ii_S3_P4E.3_K4.2_C4.2_[C-2A]_[T-1G]_H4.2_A4.1_F4.1_T4.2_[T11G]], 20.3 nM; that for ACAAACCUUAUAUAUUACUACAAAC (ssRNA) [Id_ii_S3_P4E.3_K4.2_C4.2_H4.2_A4.1_F4.1_T4.2_[G10C]], 13.3 nM. With ACAAACUUUAUAUAUUAUCACAAAC (ssRNA) [Id_ii_S3_P4E.3_K4.2_C4.2_[C-2T]_H4.2_A4.1_F4.1_T4.2_[G10T]_[T11C]] the figure was 16.5 nM; with ACAAACCCUAUAUAUUACGACAAAC (ssRNA) [Id_ii_S3_P4E.3_K4.2_C4.2_[T-1C]_H4.2_A4.1_F4.1_T4.2_[G10C]_[T11G]], 16.6 nM; with ACAAACAAUAUAUAUUACUACAAAC (ssRNA) [Id_ii_S3_P4E.3_K4.2_C4.2_[C-2A]_[T-1A]_H4.2_A4.1_F4.1_T4.2_[G10C]], 28.2 nM. Take ACAAACUUUAUAUAUUAACACAAAC (ssRNA) [Id_ii_S3_P4E.3_K4.2_C4.2_[C-2T]_H4.2_A4.1_F4.1_T4.2_[G10A]_[T11C]]: the affinity, expressed as Kd, was 29.5 nM. With ACAAACAAUAUAUAUUACGACAAAC (ssRNA) [Id_ii_S3_P4E.3_K4.2_C4.2_[C-2A]_[T-1A]_H4.2_A4.1_F4.1_T4.2_[G10C]_[T11G]] the figure was 43.6 nM; with ACAAACCUUAUAUAUUAAUACAAAC (ssRNA) [Id_ii_S3_P4E.3_K4.2_C4.2_H4.2_A4.1_F4.1_T4.2_[G10A]], 14 nM. The result for UCUCUUUGUAUUGUUCUCUCUU (ssRNA) [Ib_S1_P5E.1_K5.1_C5.1_H5.1_A5.1_[A7G]_F5.1_[A10C]_T5.1] reads 45.8 nM; that for UCUCUUUGUACUAUUAUCUCUU (ssRNA) [Ie_S1_P4E.1_K4.1_C4.1_H4.1_[+4C]_A4.1_F4.1_T4.1], 4.49 nM; that for ACAAACUAUAUAUAUUAACACAAAC (ssRNA) [Id_ii_S3_P4E.3_K4.2_C4.2_[C-2T]_[T-1A]_H4.2_A4.1_F4.1_T4.2_[G10A]_[T11C]], 32.9 nM. The result for ACAAACUCUAUAUAUUAUGACAAAC (ssRNA) [Id_ii_S3_P4E.3_K4.2_C4.2_[C-2T]_[T-1C]_H4.2_A4.1_F4.1_T4.2_[G10T]_[T11G]] reads 14.5 nM; that for ACAAACGUUAUAUAUUAUUACAAAC (ssRNA) [Id_ii_S3_P4E.3_K4.2_C4.2_[C-2G]_H4.2_A4.1_F4.1_T4.2_[G10T]], 31.6 nM; that for ACAAACGUACACUAUUAUCACAAAC (ssRNA) [Id_ii_S3_P4E.4_K4.3_C4.2_[C-2G]_H4.3_A4.1_F4.1_T4.2_[G10T]_[T11C]], 39.9 nM. With ACAAACGCACACUAUUAGAACAAAC (ssRNA) [Id_ii_S3_P4E.4_K4.3_C4.2_[C-2G]_[T-1C]_H4.3_A4.1_F4.1_T4.2_[T11A]], the Kd was more than 2300 nM. In the case of ACAAACAGUAUAUAUUAGAACAAAC (ssRNA) [Id_ii_S3_P4E.3_K4.2_C4.2_[C-2A]_[T-1G]_H4.2_A4.1_F4.1_T4.2_[T11A]], the Kd is 11.3 nM. ACAAACUUUAUAUAUUAUAACAAAC (ssRNA) [Id_ii_S3_P4E.3_K4.2_C4.2_[C-2T]_H4.2_A4.1_F4.1_T4.2_[G10T]_[T11A]]: the Kd stood at 18.1 nM. Compared with the last molecule, the Kd is about 1.6-fold higher. The result for ACAAACAUUAUAUAUUAUCACAAAC (ssRNA) [Id_ii_S3_P4E.3_K4.2_C4.2_[C-2A]_H4.2_A4.1_F4.1_T4.2_[G10T]_[T11C]] reads 19.4 nM; that for ACAAACACUAUAUAUUAUGACAAAC (ssRNA) [Id_ii_S3_P4E.3_K4.2_C4.2_[C-2A]_[T-1C]_H4.2_A4.1_F4.1_T4.2_[G10T]_[T11G]], 16.6 nM. With ACAAACAGUAUAUAUUAACACAAAC (ssRNA) [Id_ii_S3_P4E.3_K4.2_C4.2_[C-2A]_[T-1G]_H4.2_A4.1_F4.1_T4.2_[G10A]_[T11C]] the figure was 38.8 nM; with ACAAACACUAUAUAUUAAAACAAAC (ssRNA) [Id_ii_S3_P4E.3_K4.2_C4.2_[C-2A]_[T-1C]_H4.2_A4.1_F4.1_T4.2_[G10A]_[T11A]], 34 nM.

On to ACAAACAUUAUAUAUUACUACAAAC (ssRNA) [Id_ii_S3_P4E.3_K4.2_C4.2_[C-2A]_H4.2_A4.1_F4.1_T4.2_[G10C]], for which the Kd was found to be 21.1 nM. For ACAAACUAUAUAUAUUACGACAAAC (ssRNA) [Id_ii_S3_P4E.3_K4.2_C4.2_[C-2T]_[T-1A]_H4.2_A4.1_F4.1_T4.2_[G10C]_[T11G]], binding was put at a Kd of 27.8 nM.

Regarding ACAAACUUUAUAUAUUACGACAAAC (ssRNA) [Id_ii_S3_P4E.3_K4.2_C4.2_[C-2T]_H4.2_A4.1_F4.1_T4.2_[G10C]_[T11G]], binding was put at a Kd of 19.4 nM.

Molecule ACAAACGAUAUAUAUUAAUACAAAC (ssRNA) [Id_ii_S3_P4E.3_K4.2_C4.2_[C-2G]_[T-1A]_H4.2_A4.1_F4.1_T4.2_[G10A]] registered a Kd of 40.7 nM. With ACAAACACUAUAUAUUAUAACAAAC (ssRNA) [Id_ii_S3_P4E.3_K4.2_C4.2_[C-2A]_[T-1C]_H4.2_A4.1_F4.1_T4.2_[G10T]_[T11A]] the figure was 20.5 nM; with UCUCUUUGUAUGAUUUUCUCUU (ssRNA) [Ib_S1_P5E.1_K5.1_C5.1_H5.1_A5.1_[T6G]_F5.1_[A10T]_T5.1], 39.5 nM. The result for ACAAACAAUAUAUAUUAGCACAAAC (ssRNA) [Id_ii_S3_P4E.3_K4.2_C4.2_[C-2A]_[T-1A]_H4.2_A4.1_F4.1_T4.2_[T11C]] reads 11.9 nM. The result for ACAAACUGACACUAUUACGACAAAC (ssRNA) [Id_ii_S3_P4E.4_K4.3_C4.2_[C-2T]_[T-1G]_H4.3_A4.1_F4.1_T4.2_[G10C]_[T11G]] reads more than 2300 nM; that for ACAAACGUACACUAUUAGCACAAAC (ssRNA) [Id_ii_S3_P4E.4_K4.3_C4.2_[C-2G]_H4.3_A4.1_F4.1_T4.2_[T11C]], 70.4 nM.

In turn, ACAAACACUAUAUAUUAUCACAAAC (ssRNA) [Id_ii_S3_P4E.3_K4.2_C4.2_[C-2A]_[T-1C]_H4.2_A4.1_F4.1_T4.2_[G10T]_[T11C]] yielded a dissociation constant (Kd) of 17.7 nM. With ACAAACGUUAUAUAUUACUACAAAC (ssRNA) [Id_ii_S3_P4E.3_K4.2_C4.2_[C-2G]_H4.2_A4.1_F4.1_T4.2_[G10C]] the figure was 58 nM; with ACAAACACUAUAUAUUACCACAAAC (ssRNA) [Id_ii_S3_P4E.3_K4.2_C4.2_[C-2A]_[T-1C]_H4.2_A4.1_F4.1_T4.2_[G10C]_[T11C]], 33.5 nM; with ACAAACAAUAUAUAUUAUCACAAAC (ssRNA) [Id_ii_S3_P4E.3_K4.2_C4.2_[C-2A]_[T-1A]_H4.2_A4.1_F4.1_T4.2_[G10T]_[T11C]], 70.9 nM.

Molecule ACAAACCCUAUAUAUUAUUACAAAC (ssRNA) [Id_ii_S3_P4E.3_K4.2_C4.2_[T-1C]_H4.2_A4.1_F4.1_T4.2_[G10T]] showed a Kd of 13.3 nM.
